Target: IGF-1R 단백질 (Sino biological Inc. 10164H08H) (UniProt P08069 31-932)
Assay: ELISA, coated IGF-1R (50 ng/well), anti-human Fc-HRP

Chain of IGF-1R 단백질 (Sino biological Inc. 10164H08H) (P08069 31-932 limits assumed): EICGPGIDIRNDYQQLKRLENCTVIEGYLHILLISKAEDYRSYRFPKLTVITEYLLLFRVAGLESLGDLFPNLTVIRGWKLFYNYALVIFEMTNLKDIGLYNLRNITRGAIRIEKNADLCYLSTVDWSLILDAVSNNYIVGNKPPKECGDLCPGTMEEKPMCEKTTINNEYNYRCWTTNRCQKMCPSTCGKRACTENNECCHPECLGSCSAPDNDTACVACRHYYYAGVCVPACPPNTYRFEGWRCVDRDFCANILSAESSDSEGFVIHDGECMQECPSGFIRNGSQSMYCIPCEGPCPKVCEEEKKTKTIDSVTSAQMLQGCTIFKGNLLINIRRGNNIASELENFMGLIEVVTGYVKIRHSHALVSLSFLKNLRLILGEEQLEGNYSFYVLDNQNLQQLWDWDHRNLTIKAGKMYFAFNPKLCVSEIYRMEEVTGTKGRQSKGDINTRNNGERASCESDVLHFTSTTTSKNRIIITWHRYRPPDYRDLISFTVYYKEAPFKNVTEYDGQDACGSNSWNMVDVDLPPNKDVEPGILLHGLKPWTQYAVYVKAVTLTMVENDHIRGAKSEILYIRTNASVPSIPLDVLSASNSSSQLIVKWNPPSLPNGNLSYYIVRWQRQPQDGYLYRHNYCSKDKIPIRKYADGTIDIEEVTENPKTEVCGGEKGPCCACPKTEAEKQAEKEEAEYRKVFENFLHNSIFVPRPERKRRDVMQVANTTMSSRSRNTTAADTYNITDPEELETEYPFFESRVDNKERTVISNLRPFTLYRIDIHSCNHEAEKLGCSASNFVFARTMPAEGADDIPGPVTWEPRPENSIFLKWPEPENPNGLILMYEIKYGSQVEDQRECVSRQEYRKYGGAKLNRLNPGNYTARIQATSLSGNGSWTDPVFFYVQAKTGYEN

B1: MKJP2 인간 단일클론항체 (antibody, human IgG1, lambda, V domains shown)
VH: EVQLLESGGGLAQPGGSLRLSCAASGFTFSGYAMSWVRQAPGKGLEWVSAISSDGGSTYYADSVKGRFTISRDNSKNTLYLQMNSLRAEDTAVYYCARDPWFSRWTAFDYWGQGTLVTVSS
VL: QSVLTQPPSASGTPGQRVTISCSGSSSNIGNNAVNWYQQLPGTAPKLLIYSNSKRPSGVPDRFSGSKSGTSASLAISGLRSEDEADYYCGTWDYSLSGYVFGGGTKLTVLG
notes: Human anti-IGF-1R antibody without IL2, used as the control in the ELISA; also called 1229 클론
EC50: 0.148 nM
